The source of these data is patent US20180214548A1 (SHANGHAI YUNYI HEALTHCARE AND TECHNOLOGY, published 2018).

Assay [1] concerns the target T1, cyno PD-1^ECD-hFc protein (cyno monkey, UniProt B0LAJ3 25-167).
T1 construct: Prepared by the method for Immunogen A; also called Cyno Monkey PD-1^ECD-hFc; cyno monkey PD-1-hFc; not shown: human IgG Fc fragment (hFc) and its junction to the ECD
As to the kind of experiment: ELISA, coated cyno PD-1ECD-hFc; antibody 0.01 nM. As for the experimental part:
(§1) 100 uL of the diluted recombinant proteins were added to each well of 96-well plate. The plates were sealed with plastic film and incubated at 4° C. overnight. The plates were washed twice with wash buffer (PBS+0.01% (v/v) Tween20), and incubated with blocking buffer (PBS+0.01% (v/v) Tween20+1% (w/w) BSA) at room temperature for 2 hours. The blocking buffer was aspirated away, and 100 uL of purified anti-PD-1 antibodies were added to each well and incubated for 2 hours at 37° C. The plates were washed three times with wash buffer (PBS+0.01% (v/v) Tween20). HRP-conjugated secondary antibody (Sigma) was added to each well and incubated for 2 hours at 37° C. After the plates were washed three times with wash buffer, 100 uL TMB substrate was added to each well and incubated for 30 minutes at room temperature. 100 uL stop solution (0.1N HCl) was added to each well to stop the reaction. The absorbance at 450 nm was measured with an ELISA plate reader (384plus SpectraMax, Molecular Devices).
In general terms: An ELISA detects its analyte on a solid surface through an enzyme-linked reagent.

The target of assay [2] is T2, full length human PD-1 on cells (human, UniProt Q15116 25-288).
T2 construct: Also used here for PD-1 on human T cells/PBMC; also called CHO-K1-hPD-1; hPD-1
Kind of assay: flow cytometry, CHO-K1-hPD-1 cells; antibody 0.1 nM. An excerpt: CHO-K1 cells were stably transfected with pIRES plasmid containing the nucleic acid sequence encoding full length human PD-1 (see Example 2, step 2) to generate CHO-K1 cells stably expressing human PD-1 (herein referred to as CHO-K1-hPD-1 cells). Other CHO-K1 were stably transfected with pIRES plasmid containing the nucleic acid sequence encoding full length cyno PD-1 to generate CHO-K1 cells stably expressing cyno PD-1 (herein referred to as CHO-K1-cPD-1 cells). CHO-K1-hPD-1 and CHO-K1-cPD-1 cells were cultured and expanded in T-75 culture flasks to 90% confluence. The culture media was aspirated, and the cells were washed twice with HBSS (Hanks Balanced Salt Solution, Invitrogen). The cells were treated with enzyme-free cell dissociation solution (Versene solution, Invitrogen) and collected. The cells were then washed twice with HBSS, cell counts were determined, and cells were resuspended with HBSS at 2×10⁶ cells/mL. Goat serum was added to the cell suspension to a final concentration of 1%, and the cells were blocked for 30 minutes on ice and then washed twice with HBSS. The cells were collected after centrifugation and resuspended in FACS buffer (HBSS+1% BSA, v/v) at 2×10⁶ cells/mL. 100 uL of the cell suspension were then added to each well of 96-well plate. 100 uL of purified anti-PD-1 antibodies from Example 2 were added to each well of the 96-well plate and incubated for 2 hours on ice. […] The samples were washed three times with FACS buffer, and 100 uL fixation buffer (4% paraformaldehyde v/v) were added to each well and incubated for 10 minutes. The cells were then washed twice with FACS buffer and resuspended in 100 uL FACS buffer. The mean fluorescence intensity (MFI) was determined using FACS Calibur (BD), and the results are shown in FIGS. 7-8 and in Tables 10-11.
(In general: Flow cytometry measures light scatter and fluorescence of single cells or particles in a stream.)

Assay [3] addresses T3, human PD-1^ECD-hFc protein (Immunogen A) (human, UniProt Q15116 25-167).
T3 construct: Biotinylated for the Octet assay; also called PD-1-hFc; hPD-1^ECD-hFc; not shown: human IgG Fc fragment (hFc)
As to the kind of experiment: protein-based receptor-ligand blocking ELISA: coated PD-1ECD-hFc, blocked ligand biotinylated PD-L2ECD, streptavidin-HRP. As for the experimental part: Purified PD-1^ECD-hFc (Example 2) was diluted with PBS to a final concentration of 1.0 ug/mL, and 100 uL diluted PD-1^ECD-hFc were added to each well of a 96-well plate that was then sealed with plastic film and incubated at 4° C. overnight. The plate was washed twice with wash buffer (PBS+0.01% (v/v) Tween 20) and incubated with blocking buffer (PBS+[…]) at room temperature for 2 hours. The blocking buffer was aspirated, and 50 uL purified anti-PD-1 antibodies from Example 2 were added to each well of 96-well plate. […] The plate was washed three times with wash buffer (PBS+0.01% (v/v) Tween 20). 100 uL HRP-conjugated streptavidin (Sigma) were then added to each well and incubated at 37° C. for 2 hours. The plate was then washed three times with wash buffer, and 100 uL TMB substrate were added to each well. After 30 minutes of incubation at room temperature, the reaction was stopped by adding 100 uL stop solution (0.1N HCl). The absorbance at OD450 nm was measured with an ELISA plate reader (384plus SpectraMax, Molecular Devices).

Assay [4] concerns the target T1, cyno PD-1^ECD-hFc protein. Kind of assay: ELISA, coated cyno PD-1ECD-hFc; antibody 1 nM. The procedure: as §1
The target of assay [5] is T3, human PD-1^ECD-hFc protein (Immunogen A). As to the kind of experiment: ELISA, coated human PD-1ECD-hFc; antibody 10 nM. The procedure:
as §1

The next assay addresses T4, CTLA4 (human, UniProt P16410 37-162, limits assumed).
T4 sequence (looked up): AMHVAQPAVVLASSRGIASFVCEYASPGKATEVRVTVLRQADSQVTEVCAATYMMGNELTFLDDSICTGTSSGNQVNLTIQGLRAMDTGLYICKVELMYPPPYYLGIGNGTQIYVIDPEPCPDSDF
Kind of assay: ELISA on coated protein (Table 9). The procedure:
as §1

Another assay concerns the target T5, B7-1 (human, UniProt P33681 35-242).
T5 sequence (looked up): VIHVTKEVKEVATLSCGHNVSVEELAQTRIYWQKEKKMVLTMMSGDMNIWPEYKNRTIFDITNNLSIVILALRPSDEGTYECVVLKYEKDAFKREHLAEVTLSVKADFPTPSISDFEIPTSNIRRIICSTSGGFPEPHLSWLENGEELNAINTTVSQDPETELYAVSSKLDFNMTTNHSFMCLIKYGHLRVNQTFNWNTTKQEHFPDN
As to the kind of experiment: ELISA on coated protein (Table 9). The procedure: as §1

A further assay concerns the target T6, ICOS (human, UniProt Q9Y6W8 21-140, limits assumed).
T6 sequence (looked up): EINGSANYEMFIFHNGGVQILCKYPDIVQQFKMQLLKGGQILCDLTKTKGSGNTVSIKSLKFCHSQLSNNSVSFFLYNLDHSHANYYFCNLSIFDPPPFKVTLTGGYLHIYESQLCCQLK
Kind of assay: ELISA on coated protein (Table 9). The procedure: as §1

The target of a further assay is CD28 (human, UniProt P10747 19-152). Kind of assay: ELISA on coated protein (Table 9). As for the experimental part: as §1
CD28, sequence (P10747 19-152 limits assumed): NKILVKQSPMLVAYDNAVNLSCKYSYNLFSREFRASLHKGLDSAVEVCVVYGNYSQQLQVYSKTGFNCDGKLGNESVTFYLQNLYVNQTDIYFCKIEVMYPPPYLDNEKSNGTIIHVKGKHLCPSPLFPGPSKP

T2 sequence (Q15116 25-288 limits assumed): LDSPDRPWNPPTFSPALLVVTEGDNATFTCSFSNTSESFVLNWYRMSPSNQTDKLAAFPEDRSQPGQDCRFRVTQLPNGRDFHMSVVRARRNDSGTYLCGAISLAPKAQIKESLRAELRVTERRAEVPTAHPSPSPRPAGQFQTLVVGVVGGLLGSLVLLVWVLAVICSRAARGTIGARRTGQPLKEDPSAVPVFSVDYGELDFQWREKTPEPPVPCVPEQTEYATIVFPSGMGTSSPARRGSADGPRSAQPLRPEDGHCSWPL
T3 sequence (Q15116 25-167): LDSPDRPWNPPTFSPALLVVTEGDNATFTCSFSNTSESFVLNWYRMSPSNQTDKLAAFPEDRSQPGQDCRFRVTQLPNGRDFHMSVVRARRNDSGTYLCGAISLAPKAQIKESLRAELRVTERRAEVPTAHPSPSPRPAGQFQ
T1 sequence (B0LAJ3 entry or part of it limits assumed): as the sequence (Q15116 25-167) above, with D2E, P10A, V19L, T35A, Q75R counted along it

B1: chimeric anti-PD-1 antibody 21G8F11 (antibody, V domains shown)
VH: EVQLLESGGGLAQPGGSLRLSCAASGFSFNTYLMHWVRQAPGKGLEWVSAISGGGGNTYYADSVKGRFTISRDNSKNTLYLQMNSLRAEDTAVYYCAKENRIPVAPFDYWGQGTLVTVSS
VL: DIQMTQSPSTLSASVGDRVTITCRASQSISTWLAWYQQKPGKAPKLLIYKASSLESGVPSRFSGSGSGTEFTLTISSLQPDDLATYYCQQYNSFSWTFGQGTKVEIK
notes: Purified from hybridoma of Harbour H2L2 mice: human variable regions, rat constant regions
For B1, the figures for the OD450 nm in [1], in assay [4] and in [5] were 0.27, 2.45 and 2.87, respectively. In assay [2], the Mean fluorescence intensity was 22.8. For the same molecule, the “IC50 (read off the curve)” value in [3] is approximately 0.6 µg/mL. In addition, the binding result with CTLA4, in the assay with B7-1, with ICOS and in the assay with CD28 was “no binding” in each case.

B2: chimeric anti-PD-1 antibody 32B5C7 (antibody, V domains shown)
VH: EVQLLESGGGLVQPGGSLRLSCAASGFTFSSYAMSWVRQAPGKGLEWVSTISGSGGTTYYADSVKGRFTISRDNSKNTLYLQMNSLRAEDTAVYYCTLTGDPDYWGQGTLVTVSS
VL: EIVLTQSPATLSLSPGERATLSCRASQSVSSYLAWYQQKPGQAPRLLIYDASKRATGIPARFSGSGSGTDFTLTISSLEPEDFAVYYCQQRNNWPLTFGGGTKVEIK
notes: as for B1
Regarding B2, the results for the OD450 nm in assay [1], in assay [4] and in assay [5] were 0.1, 1.03 and 3.14, respectively. This molecule had a Mean fluorescence intensity in assay [2] of 13.2. In assay [3], the “IC50 (read off the curve)” value is approximately 2 nM. Also, the binding result with CTLA4, with B7-1, in the assay with ICOS and with CD28 was “no binding” throughout.

B3: chimeric anti-PD-1 antibody 76G5B3 (antibody, V domains shown)
VH: QVQLVESGGGVVQPGRSLRLSCAASGFTFSDYGFHWVRQAPGKGLEWVAVIWYDGSNEYYTDSVKGRFTISRDNSKNTLYLQMNSLRAEDTAMYFCVVNPFDYWGQGTLVTVSS
VL: DIQMTQSPSSLSAFVGDRVTITCRASQGINHYLAWYQQKPGKAPNLLILAASTLLSGVPSRFGGRGSGTDFTLIISSLQPEDVATYYCQKYDSAPYTFGQGTKLEIK
notes: as for B1
For B3, the OD450 nm was found to be 0.14 in assay [1], 1.4 in [4] and 3.12 in assay [5]. The Mean fluorescence intensity in assay [2] amounted to 36.2. Moreover, the “IC50 (read off the curve)” value in assay [3] was approximately 1 nM. Also, the binding result with CTLA4, with B7-1, with ICOS and in the assay with CD28 was “no binding” in each case.
